Laboratory results published in CN101233156A (MEDAREX INC, dated 2008).

T1: 人CD 19 (细胞表面上表达: Raji、Daudi、ARH-77细胞, 人CD 19转染的CHO细胞) (human, UniProt P15391 20-556)
T1 construct: CD19 on the surface of B cell tumour lines (endogenous) or of CHO cells transfected with full-length cDNA of the transmembrane form; it is not tied word for word to the cells used; also called CHO-CD 19; CD 19-CHO
T1 sequence: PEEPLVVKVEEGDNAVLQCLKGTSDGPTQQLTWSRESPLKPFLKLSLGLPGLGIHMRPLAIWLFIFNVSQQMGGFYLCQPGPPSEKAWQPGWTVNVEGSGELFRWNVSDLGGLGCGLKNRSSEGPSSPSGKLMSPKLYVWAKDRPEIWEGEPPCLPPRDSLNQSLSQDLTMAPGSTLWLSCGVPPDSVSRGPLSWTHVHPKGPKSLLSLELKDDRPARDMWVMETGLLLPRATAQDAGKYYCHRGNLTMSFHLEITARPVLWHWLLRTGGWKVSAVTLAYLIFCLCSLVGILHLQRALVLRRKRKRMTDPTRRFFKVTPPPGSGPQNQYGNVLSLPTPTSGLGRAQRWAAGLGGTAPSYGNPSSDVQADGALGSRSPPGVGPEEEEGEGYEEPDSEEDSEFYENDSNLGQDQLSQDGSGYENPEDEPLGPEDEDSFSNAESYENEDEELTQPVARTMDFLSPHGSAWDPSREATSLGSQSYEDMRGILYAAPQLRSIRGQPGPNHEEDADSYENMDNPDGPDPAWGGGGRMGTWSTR

B1: 抗CD 19人单克隆抗体47G4 (antibody, V domains shown)
VH: QVQLVQSGAEVKKPGSSVKVSCKDSGGTFSSYAISWVRQAPGQGLEWMGGIIPIFGTTNYAQQFQGRVTITADESTSTAYMELSSLRSEDTAVYYCAREAVAADWLDPWGQGTLVTVSS
VL: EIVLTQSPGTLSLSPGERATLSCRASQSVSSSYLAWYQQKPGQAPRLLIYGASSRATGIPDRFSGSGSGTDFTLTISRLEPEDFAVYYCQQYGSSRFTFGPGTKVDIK
notes: 125I-labelled in the Scatchard assay; also called HuMAb 47G4; CD 19 HuMab 47G4
B2: 抗CD 19人单克隆抗体21D4 (antibody, V domains shown)
VH: EVQLVQSGAEVKKPGESLKISCKGSGYSFSSSWIGWVRQMPGKGLEWMGIIYPDDSDTRYSPSFQGQVTISADKSIRTAYLQWSSLKASDTAMYYCARHVTMIWGVIIDFWGQGTLVTVSS
VL: AIQLTQSPSSLSASVGDRVTITCRASQGISSALAWYQQKPGKAPKLLIYDASSLESGVPSRFSGSGSGTDFTLTISSLQPEDFATYYCQQFNSYPYTFGQGTKLEIK
notes: Human monoclonal antibody from KM mouse hybridoma; also called HuMAb 21D4; HuMab 21D4

Biological target: T1, 人CD 19 (细胞表面上表达: Raji、Daudi、ARH-77细胞, …)
Assay: Scatchard analysis, 125I-labelled antibody on Raji cells

Binder	Kd [nM]
B1	~12
B2	~2.14
